Source: US20110318347A1

How the values were obtained:
human CXCR4 (human) [1] = assay: competition vs [125I]-238D4 (3 nM), membranes of HEK293T cells expressing CXCR4
human CXCR4 (human) [2] = assay: cell-based or functional assay
CCR5 = CCR5 (UniProt P51681); assay: cell-based or functional assay
human CXCR4 (human) [3] = assay: competition with [125I]-238D2 on HEK293T-CXCR4 membranes
human CXCR4 (human) [4] = target: human CXCR4 (human)
human CXCR4 (human) [5] = assay: competition with [125I]-CXCL12 on HEK293T-CXCR4 membranes
human CXCR4 (human) [6] = assay: competition vs [125I]-CXCL12 (40 pM), membranes of HEK293T cells expressing CXCR4
human CXCR4 (human) [7] = assay: competition with [125I]-238D4 on HEK293T-CXCR4 membranes
human CXCR4 (human) [8] = assay: competition vs [125I]-238D2 (3 nM), membranes of HEK293T cells expressing CXCR4
human CXCR4 (human) [9] = assay: periplasmic fraction (1:10), displacement of [125I]-CXCL12, HEK293T-CXCR4 membranes; - = 0-29%, + = 30-69%, ++ = 70-100%

Chain of CCR5 (P51681 whole entry): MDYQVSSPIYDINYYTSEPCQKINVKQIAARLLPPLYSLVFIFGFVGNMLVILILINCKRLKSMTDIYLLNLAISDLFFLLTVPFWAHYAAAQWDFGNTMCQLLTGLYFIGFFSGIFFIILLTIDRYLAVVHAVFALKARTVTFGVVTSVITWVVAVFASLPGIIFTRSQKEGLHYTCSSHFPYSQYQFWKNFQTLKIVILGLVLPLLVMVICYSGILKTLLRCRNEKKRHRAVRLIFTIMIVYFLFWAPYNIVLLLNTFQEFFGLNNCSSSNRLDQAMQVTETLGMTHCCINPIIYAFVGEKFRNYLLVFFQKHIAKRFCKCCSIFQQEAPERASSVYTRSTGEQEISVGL

B1: Nanobody 238D4 (VHH, from a related filing, part only)
VHH: EVQLMESGGGLVQAGGSLRLSCAASGRTFNNYAMGWFRRAPGKEREFVAAITRSGVRSGVSAIYGDSVKDRFTISRDNAKNTLYLQMNSLKPEDTAVYTCAASAIGSGALRRFEYDYSGQGTQVTVSS
**Q.** B1 was tested. Which Displacem. (%) (human CXCR4 (human) [1]) did it give?
**A.** 103%

**Q.** What about the pKi (human CXCR4 (human) [1]) of the same binder?
**A.** 8.55

**Q.** What about the Anti-HIV-1 activity (in nM), MT-4/HE (human CXCR4 (human) [2]) of the same binder?
**A.** 82 nM

**Q.** And the Anti-HIV-1 activity (in nM), MT-4/NL4.3 (human CXCR4 (human) [2])?
**A.** 40.3 nM

**Q.** And the Anti-HIV-1 activity (in nM), PBMC/HE (human CXCR4 (human) [2])?
**A.** 13.6 nM

**Q.** And the Anti-HIV-1 activity (in nM), PBMC/NL4.3 (human CXCR4 (human) [2])?
**A.** 13.7 nM

**Q.** What about the Anti-HIV-1 activity (in nM), U87.CD4.CXCR4/NL4.3 (human CXCR4 (human) [2]) of the same binder?
**A.** 107 nM

**Q.** What about the CRE activation, HEK293T-CXCR4-CREbgal/0.01-100 nM CXCL12, Imax (%) (human CXCR4 (human) [2]) of the same binder?
**A.** 90%

**Q.** What about the CRE activation, HEK293T-CXCR4-CREbgal/0.01-100 nM CXCL12, pKi or pIC50 (pKB by the text) (human CXCR4 (human) [2]) of the same binder?
**A.** 7.7

**Q.** What about the Chemotaxis, Jurkat/0.3 nM CXCL12, Imax (%) (human CXCR4 (human) [2]) of the same binder?
**A.** 101%

**Q.** What about the Chemotaxis, Jurkat/0.3 nM CXCL12, pKi or pIC50 (human CXCR4 (human) [2]) of the same binder?
**A.** 8.31

**Q.** What about the IC50, HIV-1 NL4.3, MT-4 cells, exp. 1 (human CXCR4 (human) [2]) of the same binder?
**A.** 0.833 µg/mL

**Q.** And the IC50, HIV-1 NL4.3, PBMC donor 1 (human CXCR4 (human) [2])?
**A.** > 1 µg/mL

**Q.** What about the IC50, HIV-1 NL4.3, PBMC donor 2 (human CXCR4 (human) [2]) of the same binder?
**A.** 0.551 µg/mL

**Q.** And the IC50, HIV-1 UG270, PBMC donor 1 (human CXCR4 (human) [2])?
**A.** > 1 µg/mL

**Q.** What about the IC50, HIV-1 UG270, PBMC donor 2 (human CXCR4 (human) [2]) of the same binder?
**A.** > 1 µg/mL

**Q.** What about the IC90, HIV-1 NL4.3, MT-4 cells, exp. 1 (human CXCR4 (human) [2]) of the same binder?
**A.** > 1 µg/mL

**Q.** What about the IC90, HIV-1 NL4.3, PBMC donor 1 (human CXCR4 (human) [2]) of the same binder?
**A.** > 1 µg/mL

**Q.** What about the IC90, HIV-1 NL4.3, PBMC donor 2 (human CXCR4 (human) [2]) of the same binder?
**A.** > 1 µg/mL

**Q.** What about the IC90, HIV-1 UG270, PBMC donor 1 (human CXCR4 (human) [2]) of the same binder?
**A.** > 1 µg/mL

**Q.** And the IC90, HIV-1 UG270, PBMC donor 2 (human CXCR4 (human) [2])?
**A.** > 1 µg/mL

**Q.** What about the IP accumulation, HEK293T-CXCR4-Gαqi5/30 nM CXCL12, Imax (%) (human CXCR4 (human) [2]) of the same binder?
**A.** 90%

**Q.** And the IP accumulation, HEK293T-CXCR4-Gαqi5/30 nM CXCL12, pKi or pIC50 (human CXCR4 (human) [2])?
**A.** 8.39

**Q.** And the nM IC50, HIV-1 NL4.3, PBMC donor 1 (human CXCR4 (human) [2])?
**A.** > 67 nM

**Q.** And the nM IC50, HIV-1 NL4.3, PBMC donor 2 (human CXCR4 (human) [2])?
**A.** 36.7 nM

**Q.** And the nM IC50, HIV-1 UG270, PBMC donor 1 (human CXCR4 (human) [2])?
**A.** > 67 nM

**Q.** And the nM IC50, HIV-1 UG270, PBMC donor 2 (human CXCR4 (human) [2])?
**A.** > 67 nM

**Q.** And the Anti-HIV-1 activity (in nM), PBMC/BaL (CCR5)?
**A.** > 100 nM

**Q.** What about the Anti-HIV-1 activity (in nM), U87.CD4.CCR5/BaL (CCR5) of the same binder?
**A.** > 500 nM

**Q.** What about the IC50, HIV-1 BaL, PBMC donor 1 (CCR5) of the same binder?
**A.** > 1 µg/mL

**Q.** What about the IC50, HIV-1 BaL, PBMC donor 2 (CCR5) of the same binder?
**A.** > 1 µg/mL

**Q.** And the IC90, HIV-1 BaL, PBMC donor 1 (CCR5)?
**A.** > 1 µg/mL

**Q.** What about the IC90, HIV-1 BaL, PBMC donor 2 (CCR5) of the same binder?
**A.** > 1 µg/mL

**Q.** What about the nM IC50, HIV-1 BAL, PBMC donor 1 (CCR5) of the same binder?
**A.** > 67 nM

**Q.** And the nM IC50, HIV-1 BAL, PBMC donor 2 (CCR5)?
**A.** > 67 nM

**Q.** And the IC50 (read off the curve) (human CXCR4 (human) [3])?
**A.** 3 nM

**Q.** And the IC50 (read off the curve), migration of Jurkat cells towards 0.3 nM CXCL12 (human CXCR4 (human) [4])?
**A.** 9 nM

**Q.** What about the IC50 (read off the curve) (human CXCR4 (human) [5]) of the same binder?
**A.** 10 nM

**Q.** And the Displacem. (%) (human CXCR4 (human) [6])?
**A.** 99%

**Q.** What about the pKi (human CXCR4 (human) [6]) of the same binder?
**A.** 8.22

**Q.** What about the IC50 (read off the curve) (human CXCR4 (human) [7]) of the same binder?
**A.** 4 nM

**Q.** And the Displacem. (%) (human CXCR4 (human) [8])?
**A.** 101%

**Q.** And the pKi (human CXCR4 (human) [8])?
**A.** 8.8

**Q.** What about the percent inhibition of specific [125I]-CXCL12 binding (human CXCR4 (human) [9]) of the same binder?
**A.** 70 to 100%
